Data reported in publication PMC8031663, “Caveolin‐1‐driven membrane remodelling regulates hnRNPK‐mediated exosomal microRNA sorting in cancer”.

Molecular target: hnRNPK (6xHis-GFP fusion) (Homo sapiens, UniProt P61978 1-463)
Assay: MST; Kd plotted in Fig 4B, value not in text; MST: 50 mM HEPES, 0.3 M KCl, pH 7.4, 40 nM RNA, protein dilution from 150 uM, temperature not stated; pull-down: 10 mM Tris-Cl pH 7.5, 20 mM KCl, 1.5 mM MgCl2
Conditions: protein: recombinant; tags: N-terminal 6xHis-GFP, TEV site; label: 5' 6-FAM; single strand

**Q.** Does UCAGUGCACUACAGAACUUUGU (ssRNA) [motif_mimic (miR-148a-3p)] bind?
**A.** Result: binds
